Assay results published in patent US12584139B2, “Nucleic acid construct set, kit, detection method and method for predicting drug effect” (KABUSHIKI KAISHA TOSHIBA, priority 2020, dated 2026).

B1: vector 1-10: CMV-promoter vector with Cre gene cleaved by ApaI/NheI, 10-base homologous sequences at the cleavage site (from SEQ ID NO: 9) (nucleic acid)
DNA: AGTGAACCGTCAGATCCTCGAGATCTGCGATCTAAGTAATGTCCAATTTACTGACCGTACACCAAAATTTGCCTGCATTACCGGTCGATGCAACGAGTGATGAGGTTCGCAAGAACCTGATGGACATGTTCAGGGATCGCCAGGCGTTTTCTGAGCATACCTGGAAAATGCTTCTGTCCGTTTGCCGGTCGTGGGCGGCATGGTGCAAGTTGAATAACCGGAAATGGTTTCCCGCAGAACCTGAAGATGTTCGCGATTATCTTCTATATCTTCAGGCGCGCGGTCTGGCAGTAAAAACTATCCAGCAACATTTGGGCCAGCTAAACATGCTTCATCGTCGGTCCGGGCTGCCACGACCAAGTGACAGCAATGCTGTTTCACTGGTTATGCGGCGGGGCCCGTTAACGCTAGCTTATGCGGCGGATCCGAAAAGAAAACGTTGATGCCGGTGAACGTGCAAAACAGGCTCTAGCGTTCGAACGCACTGATTTCGACCAGGTTCGTTCACTCATGGAAAATAGCGATCGCTGCCAGGATATACGTAATCTGGCATTTCTGGGGATTGCTTATAACACCCTGTTACGTATAGCCGAAATTGCCAGGATCAGGGTTAAAGATATCTCACGTACTGACGGTGGGAGAATGTTAATCCATATTGGCAGAACGAAAACGCTGGTTAGCACCGCAGGTGTAGAGAAGGCACTTAGCCTGGGGGTAACTAAACTGGTCGAGCGATGGATTTCCGTCTCTGGTGTAGCTGATGATCCGAATAACTACCTGTTTTGCCGGGTCAGAAAAAATGGTGTTGCCGCGCCATCTGCCACCAGCCAGCTATCAACTCGCGCCCTGGAAGGGATTTTTGAAGCAACTCATCGATTGATTTACGGCGCTAAGGATGACTCTGGTCAGAGATACCTGGCCTGGTCTGGACACAGTGCCCGTGTCGGAGCCGCGCGAGATATGGCCCGCGCTGGAGTTTCAATACCGGAGATCATGCAAGCTGGTGGCTGGACCAATGTAAATATTGTCATGAACTATATCCGTAACCTGGATAGTGAAACAGGGGCAATGGTGCGCCTGCTGGAAGATGGCGATTAGGGCCGCGACTCTAGAACTAGTGGATCCCCC
modifications: misc_feature 1..1128 vector 1-10
B2: vector 1-30: CMV-promoter vector with Cre gene cleaved by ApaI/NheI, 30-base homologous sequences at the cleavage site (from SEQ ID NO: 11) (nucleic acid)
DNA: AGTGAACCGTCAGATCCTCGAGATCTGCGATCTAAGTAATGTCCAATTTACTGACCGTACACCAAAATTTGCCTGCATTACCGGTCGATGCAACGAGTGATGAGGTTCGCAAGAACCTGATGGACATGTTCAGGGATCGCCAGGCGTTTTCTGAGCATACCTGGAAAATGCTTCTGTCCGTTTGCCGGTCGTGGGCGGCATGGTGCAAGTTGAATAACCGGAAATGGTTTCCCGCAGAACCTGAAGATGTTCGCGATTATCTTCTATATCTTCAGGCGCGCGGTCTGGCAGTAAAAACTATCCAGCAACATTTGGGCCAGCTAAACATGCTTCATCGTCGGTCCGGGCTGCCACGACCAAGTGACAGCAATGCTGTTTCACTGGTTATGCGGCGGATCCGAAAAGAAAACGTTGGGGCCCGTTAACGCTAGCTTATGCGGCGGATCCGAAAAGAAAACGTTGATGCCGGTGAACGTGCAAAACAGGCTCTAGCGTTCGAACGCACTGATTTCGACCAGGTTCGTTCACTCATGGAAAATAGCGATCGCTGCCAGGATATACGTAATCTGGCATTTCTGGGGATTGCTTATAACACCCTGTTACGTATAGCCGAAATTGCCAGGATCAGGGTTAAAGATATCTCACGTACTGACGGTGGGAGAATGTTAATCCATATTGGCAGAACGAAAACGCTGGTTAGCACCGCAGGTGTAGAGAAGGCACTTAGCCTGGGGGTAACTAAACTGGTCGAGCGATGGATTTCCGTCTCTGGTGTAGCTGATGATCCGAATAACTACCTGTTTTGCCGGGTCAGAAAAAATGGTGTTGCCGCGCCATCTGCCACCAGCCAGCTATCAACTCGCGCCCTGGAAGGGATTTTTGAAGCAACTCATCGATTGATTTACGGCGCTAAGGATGACTCTGGTCAGAGATACCTGGCCTGGTCTGGACACAGTGCCCGTGTCGGAGCCGCGCGAGATATGGCCCGCGCTGGAGTTTCAATACCGGAGATCATGCAAGCTGGTGGCTGGACCAATGTAAATATTGTCATGAACTATATCCGTAACCTGGATAGTGAAACAGGGGCAATGGTGCGCCTGCTGGAAGATGGCGATTAGGGCCGCGACTCTAGAACTAGTGGATCCCCC
modifications: misc_feature 1..1148 vector 1-30
B3: vector 1-20: CMV-promoter vector with Cre gene cleaved by ApaI/NheI, 20-base homologous sequences at the cleavage site (from SEQ ID NO: 10) (nucleic acid)
DNA: AGTGAACCGTCAGATCCTCGAGATCTGCGATCTAAGTAATGTCCAATTTACTGACCGTACACCAAAATTTGCCTGCATTACCGGTCGATGCAACGAGTGATGAGGTTCGCAAGAACCTGATGGACATGTTCAGGGATCGCCAGGCGTTTTCTGAGCATACCTGGAAAATGCTTCTGTCCGTTTGCCGGTCGTGGGCGGCATGGTGCAAGTTGAATAACCGGAAATGGTTTCCCGCAGAACCTGAAGATGTTCGCGATTATCTTCTATATCTTCAGGCGCGCGGTCTGGCAGTAAAAACTATCCAGCAACATTTGGGCCAGCTAAACATGCTTCATCGTCGGTCCGGGCTGCCACGACCAAGTGACAGCAATGCTGTTTCACTGGTTATGCGGCGGATCCGAAAAGGGCCCGTTAACGCTAGCTTATGCGGCGGATCCGAAAAGAAAACGTTGATGCCGGTGAACGTGCAAAACAGGCTCTAGCGTTCGAACGCACTGATTTCGACCAGGTTCGTTCACTCATGGAAAATAGCGATCGCTGCCAGGATATACGTAATCTGGCATTTCTGGGGATTGCTTATAACACCCTGTTACGTATAGCCGAAATTGCCAGGATCAGGGTTAAAGATATCTCACGTACTGACGGTGGGAGAATGTTAATCCATATTGGCAGAACGAAAACGCTGGTTAGCACCGCAGGTGTAGAGAAGGCACTTAGCCTGGGGGTAACTAAACTGGTCGAGCGATGGATTTCCGTCTCTGGTGTAGCTGATGATCCGAATAACTACCTGTTTTGCCGGGTCAGAAAAAATGGTGTTGCCGCGCCATCTGCCACCAGCCAGCTATCAACTCGCGCCCTGGAAGGGATTTTTGAAGCAACTCATCGATTGATTTACGGCGCTAAGGATGACTCTGGTCAGAGATACCTGGCCTGGTCTGGACACAGTGCCCGTGTCGGAGCCGCGCGAGATATGGCCCGCGCTGGAGTTTCAATACCGGAGATCATGCAAGCTGGTGGCTGGACCAATGTAAATATTGTCATGAACTATATCCGTAACCTGGATAGTGAAACAGGGGCAATGGTGCGCCTGCTGGAAGATGGCGATTAGGGCCGCGACTCTAGAACTAGTGGATCCCCC
modifications: misc_feature 1..1138 vector 1-20

Test system: human mammary tumor-derived cell line (MCF-7)
Assay: NanoLuc luminescence assay after transfection of lipid particles encapsulating vectors 1 and vector 2
Type: cell-based
Details: for luminescence amount ratio (luminescence intensity with vector 2 alone assumed to be 1): vector 1 (50 ng/well) together with vector 2 (1 ng/well), MCF-7, 48 hours; for NanoLuc luminescence intensity (RLU): vector 1 (50 ng/well) transfected together with vector 2 (1 ng/well), lipid particles, MCF-7, 48 hours after addition
Description: A human mammary tumor-derived cell line (MCF-7) was subjected to adhesion culture at 37° C. in a 5% CO2 atmosphere in a culture flask using a medium (MEM, GIBCO) to which 10% fetal bovine serum (FBS) was added. After the culture, the medium was removed, and the cells were washed with PBS, and then the cells were detached by 0.25% trypsin-EDTA treatment. Then, the cells were suspended in a medium to which 10% FBS was added to inactivate trypsin. After recovering the cells by centrifugation, the cells were suspended in a medium to which 10% FBS was added to be 2.0×10^5 cells/mL. To a 96 well culture dish (manufactured by Thermo Fisher Scientific), 200 μL of the cell suspension was added to be 4.0×10^4 cells/well.
Next, the lipid particles encapsulating the three types of vectors 1 prepared in Example 3 were added to the wells to be a DNA concentration of 50 ng/well. At the same time, the lipid particles encapsulating the vector 2 prepared in Example 3 were further added to the wells to be a DNA concentration of 1 ng/well. As a control, a well to which only the vector 2 was added was also provided. Therefore, a sample to which only the vector 2 was added, a sample to which the vector 1-10 and the vector 2 were added, a sample to which the vector 1-20 and the vector 2 were added, and a sample to which the vector 1-30 and the vector 2 were added were obtained. After the addition, the cells were cultured at 37° C. in a 5% CO2 atmosphere.
48 hours after the addition of the lipid particles, the culture plate was taken out of the incubator, and the medium was removed. Then, the cells were washed with PBS, Glo Lysis Buffer (Promega) was added thereto at 100 μL/well, and the resulting mixtures were frozen at −80° C. for 30 minutes. The mixtures were melted at room temperature and then collected in 1.5 ml centrifuge tubes. The cell lysates were centrifuged at 15,000 rpm for 10 minutes to precipitate cell residues, and 25 μL of supernatant was dispensed into a 96 well plate (Black, Nunc). To the dispensed supernatant, 25 μL of a luciferase substrate solution contained in a luciferase assay system (Nano-Glo (registered trademark) Luciferase Assay System, Promega Corporation) was added and mixed. The luminescence amount of the resulting mixture per 1 well per 0.1 seconds was measured by using a luminometer (Mithras LB 940, Berthold).

Molecule	luminescence amount ratio (luminescence intensity with vector 2 alone assumed to be 1)	NanoLuc luminescence intensity (RLU)
B1	0.45	about 2.9×10^5 RLU
B2	0.37	~2.4×10^5 RLU
B3	0.31	~2.0×10^5 RLU
